Data reported in patent CN111840217A (BEIJING EASTERN BIOTECH CO LTD, dated 2020).

T1: 人皮肤成纤维细胞(HDF)上的IL-17RA (UniProt Q96F46 33-866, limits assumed)
T1 sequence (looked up): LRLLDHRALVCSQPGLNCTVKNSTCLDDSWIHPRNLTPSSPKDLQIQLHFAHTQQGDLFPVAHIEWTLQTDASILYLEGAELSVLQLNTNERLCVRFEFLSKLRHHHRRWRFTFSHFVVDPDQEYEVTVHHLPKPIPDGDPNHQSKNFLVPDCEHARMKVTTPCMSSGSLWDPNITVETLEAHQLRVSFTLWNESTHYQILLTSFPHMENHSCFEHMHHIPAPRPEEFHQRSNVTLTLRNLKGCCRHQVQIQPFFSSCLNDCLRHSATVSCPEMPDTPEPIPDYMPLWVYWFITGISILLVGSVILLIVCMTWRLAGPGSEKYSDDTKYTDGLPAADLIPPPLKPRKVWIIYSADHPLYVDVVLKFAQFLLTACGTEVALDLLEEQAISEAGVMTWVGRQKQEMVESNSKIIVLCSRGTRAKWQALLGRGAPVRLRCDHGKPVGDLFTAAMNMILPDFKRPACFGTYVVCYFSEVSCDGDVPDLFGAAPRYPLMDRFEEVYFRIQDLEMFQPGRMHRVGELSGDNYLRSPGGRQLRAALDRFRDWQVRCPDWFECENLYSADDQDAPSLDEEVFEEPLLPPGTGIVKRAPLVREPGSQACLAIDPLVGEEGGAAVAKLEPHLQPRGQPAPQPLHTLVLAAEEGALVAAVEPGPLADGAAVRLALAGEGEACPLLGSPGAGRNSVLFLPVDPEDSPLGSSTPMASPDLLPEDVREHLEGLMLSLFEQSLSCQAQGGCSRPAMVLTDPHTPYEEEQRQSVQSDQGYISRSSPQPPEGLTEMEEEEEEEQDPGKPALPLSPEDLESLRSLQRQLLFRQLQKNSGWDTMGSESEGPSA


target: T1, 人皮肤成纤维细胞(HDF)上的IL-17RA; test: cell-based or functional assay

Row | Binder | 抑制HDF细胞产生IL-6 IC50(ng/ml) [ng/mL]
1 | mAb-6全抗体 (antibody, human IgG1, kappa, V domains shown) VH: QVQLVQSGAEVKKPGASVKVSCKASGYSFTRYGISWVRQAPGQGLEWMGWISTYSGNTNYAKQFKGRVTMTTDTSTSTAYMELRSLRSDDTAVYYCARRVLRLDYWGQGTLVTVSS VL: EIVMTQSPATLSVSPGERATLSCRASQDISISLGWFQQKPGQAPRPLIYGWNTRATGVPARFSGSGSGTDFTLTISSLQSEDFAVYYCQQYSDPFLTFGGGTKVEIKR | 33.4
2 | mAb-9全抗体 (antibody, human IgG1, kappa, V domains shown) VH: QVQLVQSGAEVKKPGASVKVSCKASGYTWTSYGISWVRQAPGQGLEWMGWISTYSGNTNYAKKFLGRVTMTTDTSTSTAYMELRSLRSDDTAVYYCARRVLRLDYWGQGTLVTVSS VL: DIQMTQSPSSLSASVGDRVTITCRASQSVHTGLNWYQQKPGKAPKLLIYGASNLQSGVPSRFSGSGSGTDFTLTISSLQPEDFATYYCQQFEHNPLTFGQGIKVEIKR | 24.8
3 | mAb-4全抗体 (antibody, human IgG1, kappa, V domains shown) VH: QVQLVQSGAEVKKPGASVKVSCKASGYAYSNYGISWVRQAPGQGLEWMGWISTYSGNTNYAKKFIGRVTMTTDTSTSTAYMELRSLRSDDTAVYYCARRVLRLDYWGQGTLVTVSS VL: DIQMTQSPSSLSASVGDRVTITCRASQDIDSSLNWYQQKPGKAPKLLIYAASNRESGVPSRFSGSGSGTDFTLTISSLQPEDFATYYCQQWANMPGTFGQGTKVEIKR | 35.8
4 | mAb-2全抗体 (antibody, human IgG1, kappa, V domains shown) VH: QVQLVQSGAEVKKPGASVKVSCKASGYAWTRYGISWVRQAPGQGLEWMGWISTYSGNTNYAKKFKGRVTMTTDTSTSTAYMELRSLRSDDTAVYYCARRVLRLDYWGQGTLVTVSS VL: DIQMTQSPSSLSASVGDRVTITCRASQDIDSSLNWYQQKPGKAPKLLIYAASNRESGVPSRFSGSGSGTDFTLTISSLQPEDFATYYCQQWANMPGTFGQGTKVEIKR | 22.7
5 | mAb-1全抗体 (antibody, human IgG1, kappa, V domains shown) VH: QVQLVQSGAEVKKPGASVKVSCKASGYSYSNYGISWVRQAPGQGLEWMGWISTYSGNTNYSKKLKGRVTMTTDTSTSTAYMELRSLRSDDTAVYYCARRVLRLDYWGQGTLVTVSS VL: DIQMTQSPSSLSASVGDRVTITCRASQDIDSSLNWYQQKPGKAPKLLIYAASNRESGVPSRFSGSGSGTDFTLTISSLQPEDFATYYCQQWANMPGTFGQGTKVEIKR | 28.4

The next lines start with the values.

Row | 抑制HDF细胞产生IL-6 IC50(ng/ml) [ng/mL] | Binder
6 | 117 | 上市产品Brodalumab的全抗体 (antibody, V domains shown) VH: QVQLVQSGAEVKKPGASVKVSCKASGYTFTRYGISWVRQAPGQGLEWMGWISTYSGNTNYAQKLQGRVTMTTDTSTSTAYMELRSLRSDDTAVYYCARRQLYFDYWGQGTLVTVSS VL: EIVMTQSPATLSVSPGERATLSCRASQSVSSNLAWFQQKPGQAPRPLIYDASTRATGVPARFSGSGSGTDFTLTISSLQSEDFAVYYCQQYDNWPLTFGGGTKVEIK
7 | 22.9 | mAb-5全抗体 (antibody, human IgG1, kappa, V domains shown) VH: QVQLVQSGAEVKKPGASVKVSCKASGFAFTRYGISWVRQAPGQGLEWMGWISTYSGNTNYADQFIGRVTMTTDTSTSTAYMELRSLRSDDTAVYYCARRVLRLDYWGQGTLVTVSS VL: DIQMTQSPSSLSASVGDRVTITCRASQDIDSSLNWYQQKPGKAPKLLIYAASNRESGVPSRFSGSGSGTDFTLTISSLQPEDFATYYCQQWANMPGTFGQGTKVEIKR
8 | 13.5 | mAb-8全抗体 (antibody, human IgG1, kappa, V domains shown) VH: QVQLVQSGAEVKKPGASVKVSCKASGYGFASRGISWVRQAPGQGLEWMGWISTYSGNTNYAKKFEGRVTMTTDTSTSTAYMELRSLRSDDTAVYYCARRVLRLDYWGQGTLVTVSS VL: DIQMTQSPSSLSASVGDRVTITCRASQSVHTGLNWYQQKPGKAPKLLIYGASNLQSGVPSRFSGSGSGTDFTLTISSLQPEDFATYYCQQFEHNPLTFGQGIKVEIKR
9 | 29.7 | mAb-7全抗体 (antibody, human IgG1, kappa, V domains shown) VH: QVQLVQSGAEVKKPGASVKVSCKASGYTFTSYGISWVRQAPGQGLEWMGWISTYSGNTNYAKNLQGRVTMTTDTSTSTAYMELRSLRSDDTAVYYCARRVLRLDYWGQGTLVTVSS VL: EIVMTQSPATLSVSPGERATLSCRASQDISISLGWFQQKPGQAPRPLIYGWNTRATGVPARFSGSGSGTDFTLTISSLQSEDFAVYYCQQYSDPFLTFGGGTKVEIKR
10 | 36.4 | mAb-10全抗体 (antibody, human IgG1, kappa, V domains shown) VH: QVQLVQSGAEVKKPGASVKVSCKASGYSFSSYGISWVRQAPGQGLEWMGWISTYSGNTNYAKKFKGRVTMTTDTSTSTAYMELRSLRSDDTAVYYCARRVLRLDYWGQGTLVTVSS VL: DIQMTQSPSSLSASVGDRVTITCRASQSVHTGLNWYQQKPGKAPKLLIYGASNLQSGVPSRFSGSGSGTDFTLTISSLQPEDFATYYCQQFEHNPLTFGQGIKVEIKR
11 | 33.4 | mAb-3全抗体 (antibody, human IgG1, kappa, V domains shown) VH: QVQLVQSGAEVKKPGASVKVSCKASGYAFSRFGISWVRQAPGQGLEWMGWISTYSGNTNYAKHLLGRVTMTTDTSTSTAYMELRSLRSDDTAVYYCARRFLKFDYWGQGTLVTVSS VL: DIQMTQSPSSLSASVGDRVTITCRASQDIDSSLNWYQQKPGKAPKLLIYAASNRESGVPSRFSGSGSGTDFTLTISSLQPEDFATYYCQQWANMPGTFGQGTKVEIKR
12 | 60.8 | mAb-11全抗体 (antibody, human IgG1, kappa, V domains shown) VH: QVQLVQSGAEVKKPGASVKVSCKASGYAWTRYGISWVRQAPGQGLEWMGWISTYSGNTNYAKKFKGRVTMTTDTSTSTAYMELRSLRSDDTAVYYCARRVLRLDYWGQGTLVTVSS VL: DIQMTQSPSSLSASVGDRVTITCRASQSVHTGLNWYQQKPGKAPKLLIYGASNLQSGVPSRFSGSGSGTDFTLTISSLQPEDFATYYCQQFEHNPLTFGQGIKVEIKR
